Biological target: T1, SEP3 full length wild type (A. thaliana), O22456
T1 chain: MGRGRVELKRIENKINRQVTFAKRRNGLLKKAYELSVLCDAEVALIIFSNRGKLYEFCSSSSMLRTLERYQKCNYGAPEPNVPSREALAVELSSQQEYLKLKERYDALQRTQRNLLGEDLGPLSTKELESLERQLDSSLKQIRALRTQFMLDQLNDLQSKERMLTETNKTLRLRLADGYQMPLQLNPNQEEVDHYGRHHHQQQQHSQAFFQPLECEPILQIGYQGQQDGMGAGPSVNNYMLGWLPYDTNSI
Experiment: native gel or EMSA; in vitro translated proteins (not purified) with Cy5 labelled SOC1 promoter DNA in which CArG box 1 or CArG box 2 is mutated (one site left)
Conditions: remark: other sources report otherwise

stoichiometry N: 4
B1: SEP3 full length wild type, O22456 1-251 (natural protein)
chain: MGRGRVELKRIENKINRQVTFAKRRNGLLKKAYELSVLCDAEVALIIFSNRGKLYEFCSSSSMLRTLERYQKCNYGAPEPNVPSREALAVELSSQQEYLKLKERYDALQRTQRNLLGEDLGPLSTKELESLERQLDSSLKQIRALRTQFMLDQLNDLQSKERMLTETNKTLRLRLADGYQMPLQLNPNQEEVDHYGRHHHQQQQHSQAFFQPLECEPILQIGYQGQQDGMGAGPSVNNYMLGWLPYDTNSI
